*1 amine or outer side, *2 acyl side, *3 side chain or, on linkers, in order; H or OH if unused. Where a SMILES comes first, the peptide text is derived from it. Bridges are numbered along the chain shown (N, C = ends). Side-chain parts run from the residue outwards. [ ]: non-standard residue; d: D form. The star is where a group is joined. X1 = CC(C)(C)C(=O)CN1C(=O)[C@H](N*)CN(C2CCCCC2)c2ccccc21; DOTA = O=C(O)CN1CCN(CC(=O)O)CCN(CC(=O)*)CCN(CC(=O)O)CC1; 3Abz = Nc1cccc(C(=O)O)c1; CO = O=C([*:1])[*:2]
Test: in vivo
Details: BALB/c nude, mouse, in vivo, iv, total radioactivity
Protocol: To a 0.5 M NaOAc buffer (20-50 μL, pH=4.5) was added 4 μL of exemplary or comparator compound in DMSO stock solution (2000 μM) and 2 mCi ^177Lu (ITM Isotope Technologies Munich), the resulting mixture was heated to 95° C. for 15 min. The resulting product was analyzed by radio-TLC and radio-HPLC (column: Shim-pack GIST 5 μm 4.6*150 mm; buffer A: 0.2% formic acid H2O; buffer B: 0.1% formic acid acetonitrile; flow rate: 1 mL/min; gradient: 0-5 min: 10% B to 95% B; then 5-8 min: 95% B). The labelled products were used immediately or diluted by a PBS buffer containing freshly added 3 mg/mL ascorbate.
All animal care and experimental procedure were performed by following the animal protocols approved by the ethics committee of China Institute of Radiation Protection. The BALB/c nude mice (Charles River, Beijing) were utilized for these studies. Mice were below 5 per cage in sterile, microisolator cages under temperature- and humidity-controlled conditions with a 12 h light/12 h dark schedule and fed irradiated rodent chow and reverse osmosis (RO) sterile water ad libitum. In preparation for tumor cell inoculations, mice were anesthetized with isoflurane (RWD Life Science Inc.) at an induction rate of 4% and maintained at a rate of 2.5% with 0.4 L oxygen delivered via precision vaporizer and a non-rebreathing apparatus. These mice received subcutaneous rear flank injections of approximately 4×10^6 AR42J cells ([…] pancreatic cancer cell line) suspended in 200 μL of phosphate-buffered saline (PBS) and Matrigel (Corning) (1/1). Xenografted tumors were allowed to grow for ~2-4 weeks post-inoculation and ranged in mass from 0.05 to 0.50 g (average tumor size, 0.20 g). […] The mice were euthanized, and the tissues and organs were excised from the animals at 4, 24 and 72 h post-injection. The tissues and organs were weighed, counted in a PerkinElmer 2480 WIZARD2 γ counter, and the percent injected dose (% ID) and % ID/g of each organ or tissue were calculated.

## C[C@@H](O)[C@H](NC(=O)[C@@H]1CSSC[C@H](NC(=O)[C@@H](Cc2ccccc2)NC(=O)[C@H](CCCCNC(=O)c2cccc(NC(=O)N[C@@H]3CN(C4CCCCC4)c4ccccc4N(CC(=O)C(C)(C)C)C3=O)c2)NC(=O)COCCOCCNC(=O)COCCOCCNC(=O)CN2CCN(CC(=O)O)CCN(CC(=O)O)CCN(CC(=O)O)CC2)C(=O)N[C@@H](Cc2ccc(O)cc2)C(=O)N[C@H](Cc2c[nH]c3ccccc23)C(=O)N[C@@H](CCCCN)C(=O)N[C@@H]([C@@H](C)O)C(=O)N1)C(=O)O [Compound I-41, DOTA-OEG-OEG-K(Z360)-f[CYwKTC]T-OH]
T/K Tumor/Kidney ratio
  tissue to tissue ratio at 24 h: 1.7
T/L Tumor/Liver ratio
  tissue to tissue ratio at 24 h: 10
T/P Tumor/Pancreas ratio
  tissue to tissue ratio at 24 h: 24
T/Sp Tumor/Spleen ratio
  tissue to tissue ratio at 24 h: 55
T/St Tumor/Stomach ratio
  tissue to tissue ratio at 24 h: 4
Uptake Kidney
  tissue uptake at 24 h: 9.7 %ID/g
Uptake Liver
  tissue uptake at 24 h: 1.5 %ID/g
Uptake Pancreas
  tissue uptake at 24 h: 0.7 %ID/g
Uptake Spleen
  tissue uptake at 24 h: 0.3 %ID/g
Uptake Stomach
  tissue uptake at 24 h: 4 %ID/g
Uptake Tumor
  tissue uptake at 24 h: 16.1 %ID/g

## C[C@@H](O)[C@H](NC(=O)[C@@H]1CSSC[C@H](NC(=O)[C@@H](Cc2ccccc2)NC(=O)[C@H](CCCCNC(=O)c2cccc(NC(=O)N[C@@H]3CN(C4CCCCC4)c4ccccc4N(CC(=O)C(C)(C)C)C3=O)c2)NC(=O)CCOCCOCCOCCNC(=O)CN2CCN(CC(=O)O)CCN(CC(=O)O)CCN(CC(=O)O)CC2)C(=O)N[C@@H](Cc2ccc(O)cc2)C(=O)N[C@H](Cc2c[nH]c3ccccc23)C(=O)N[C@@H](CCCCN)C(=O)N[C@@H]([C@@H](C)O)C(=O)N1)C(=O)O [Compound I-48, DOTA-PEG3-K(Z360)-f[CYwKTC]T-OH]
T/K Tumor/Kidney ratio
  tissue to tissue ratio at 24 h: 1.8
T/L Tumor/Liver ratio
  tissue to tissue ratio at 24 h: 2.7
T/P Tumor/Pancreas ratio
  tissue to tissue ratio at 24 h: 14
T/Sp Tumor/Spleen ratio
  tissue to tissue ratio at 24 h: 19
T/St Tumor/Stomach ratio
  tissue to tissue ratio at 24 h: 4
Uptake Kidney
  tissue uptake at 24 h: 10.6 %ID/g
Uptake Liver
  tissue uptake at 24 h: 7.02 %ID/g
Uptake Pancreas
  tissue uptake at 24 h: 1.35 %ID/g
Uptake Spleen
  tissue uptake at 24 h: 1.02 %ID/g
Uptake Stomach
  tissue uptake at 24 h: 4.75 %ID/g
Uptake Tumor
  tissue uptake at 24 h: 18.9 %ID/g

## C[C@@H](O)[C@H](NC(=O)[C@@H]1CSSC[C@H](NC(=O)[C@@H](Cc2ccccc2)NC(=O)[C@H](CCCCNC(=O)c2cccc(NC(=O)N[C@@H]3CN(C4CCCCC4)c4ccccc4N(CC(=O)C(C)(C)C)C3=O)c2)NC(=O)CNC(=O)CNC(=O)CN2CCN(CC(=O)O)CCN(CC(=O)O)CCN(CC(=O)O)CC2)C(=O)N[C@@H](Cc2ccc(O)cc2)C(=O)N[C@H](Cc2c[nH]c3ccccc23)C(=O)N[C@@H](CCCCN)C(=O)N[C@@H]([C@@H](C)O)C(=O)N1)C(=O)O [Compound I-49, DOTA-G-G-K(Z360)-f[CYwKTC]T-OH] ({DOTA}-GGK([3Abz-CO-X1])[dF]CY[dW]KTCT-OH; disulfide 5-10)
T/K Tumor/Kidney ratio
  tissue to tissue ratio at 24 h: 1.5
T/L Tumor/Liver ratio
  tissue to tissue ratio at 24 h: 1.5
T/P Tumor/Pancreas ratio
  tissue to tissue ratio at 24 h: 9.8
T/Sp Tumor/Spleen ratio
  tissue to tissue ratio at 24 h: 14
T/St Tumor/Stomach ratio
  tissue to tissue ratio at 24 h: 3.2
Uptake Kidney
  tissue uptake at 24 h: 5.93 %ID/g
Uptake Liver
  tissue uptake at 24 h: 5.92 %ID/g
Uptake Pancreas
  tissue uptake at 24 h: 0.92 %ID/g
Uptake Spleen
  tissue uptake at 24 h: 0.62 %ID/g
Uptake Stomach
  tissue uptake at 24 h: 2.77 %ID/g
Uptake Tumor
  tissue uptake at 24 h: 8.97 %ID/g

## C[C@@H](O)[C@H](NC(=O)[C@@H]1CSSC[C@H](NC(=O)[C@@H](Cc2ccccc2)NC(=O)COCCOCCNC(=O)[C@H](CCCCNC(=O)c2cccc(NC(=O)N[C@@H]3CN(C4CCCCC4)c4ccccc4N(CC(=O)C(C)(C)C)C3=O)c2)NC(=O)COCCOCCNC(=O)CN2CCN(CC(=O)O)CCN(CC(=O)O)CCN(CC(=O)O)CC2)C(=O)N[C@@H](Cc2ccc(O)cc2)C(=O)N[C@H](Cc2c[nH]c3ccccc23)C(=O)N[C@@H](CCCCN)C(=O)N[C@@H]([C@@H](C)O)C(=O)N1)C(=O)O [Compound I-52, DOTA-OEG-K(Z360)-OEG-f[CYwKTC]T-OH]
T/K Tumor/Kidney ratio
  tissue to tissue ratio at 24 h: 0.9
T/L Tumor/Liver ratio
  tissue to tissue ratio at 24 h: 2.2
T/P Tumor/Pancreas ratio
  tissue to tissue ratio at 24 h: 14
T/Sp Tumor/Spleen ratio
  tissue to tissue ratio at 24 h: 36
T/St Tumor/Stomach ratio
  tissue to tissue ratio at 24 h: 2.4
Uptake Kidney
  tissue uptake at 24 h: 14 %ID/g
Uptake Liver
  tissue uptake at 24 h: 5.7 %ID/g
Uptake Pancreas
  tissue uptake at 24 h: 0.9 %ID/g
Uptake Spleen
  tissue uptake at 24 h: 0.3 %ID/g
Uptake Stomach
  tissue uptake at 24 h: 5.1 %ID/g
Uptake Tumor
  tissue uptake at 24 h: 12.4 %ID/g

## C[C@@H](O)[C@H](NC(=O)[C@@H]1CSSC[C@H](NC(=O)[C@@H](Cc2ccccc2)NC(=O)CNC(=O)COCCOCCNC(=O)[C@H](CCCCNC(=O)c2cccc(NC(=O)N[C@@H]3CN(C4CCCCC4)c4ccccc4N(CC(=O)C(C)(C)C)C3=O)c2)NC(=O)CN2CCN(CC(=O)O)CCN(CC(=O)O)CCN(CC(=O)O)CC2)C(=O)N[C@@H](Cc2ccc(O)cc2)C(=O)N[C@H](Cc2c[nH]c3ccccc23)C(=O)N[C@@H](CCCCN)C(=O)N[C@@H]([C@@H](C)O)C(=O)N1)C(=O)O [Compound I-53, DOTA-K(Z360)-OEG-G-f[CYwKTC]T-OH]
T/K Tumor/Kidney ratio
  tissue to tissue ratio at 24 h: 2.3
T/L Tumor/Liver ratio
  tissue to tissue ratio at 24 h: 6.3
T/P Tumor/Pancreas ratio
  tissue to tissue ratio at 24 h: 18
T/Sp Tumor/Spleen ratio
  tissue to tissue ratio at 24 h: 52
T/St Tumor/Stomach ratio
  tissue to tissue ratio at 24 h: 4.8
Uptake Kidney
  tissue uptake at 24 h: 7.15 %ID/g
Uptake Liver
  tissue uptake at 24 h: 2.57 %ID/g
Uptake Pancreas
  tissue uptake at 24 h: 0.91 %ID/g
Uptake Spleen
  tissue uptake at 24 h: 0.31 %ID/g
Uptake Stomach
  tissue uptake at 24 h: 3.36 %ID/g
Uptake Tumor
  tissue uptake at 24 h: 16.2 %ID/g

## C[C@@H](O)[C@H](NC(=O)[C@@H]1CSSC[C@H](NC(=O)[C@@H](Cc2ccccc2)NC(=O)CNC(=O)[C@H](CO)NC(=O)CNC(=O)[C@H](CCCCNC(=O)c2cccc(NC(=O)N[C@@H]3CN(C4CCCCC4)c4ccccc4N(CC(=O)C(C)(C)C)C3=O)c2)NC(=O)CN2CCN(CC(=O)O)CCN(CC(=O)O)CCN(CC(=O)O)CC2)C(=O)N[C@@H](Cc2ccc(O)cc2)C(=O)N[C@H](Cc2c[nH]c3ccccc23)C(=O)N[C@@H](CCCCN)C(=O)N[C@@H]([C@@H](C)O)C(=O)N1)C(=O)O [Compound I-54, DOTA-K(Z360)-G-S-G-f[CYwKTC]T-OH] ({DOTA}-K([3Abz-CO-X1])GSG[dF]CY[dW]KTCT-OH; disulfide 6-11)
T/K Tumor/Kidney ratio
  tissue to tissue ratio at 24 h: 2.4
T/L Tumor/Liver ratio
  tissue to tissue ratio at 24 h: 2.7
T/P Tumor/Pancreas ratio
  tissue to tissue ratio at 24 h: 9.7
T/Sp Tumor/Spleen ratio
  tissue to tissue ratio at 24 h: 36
T/St Tumor/Stomach ratio
  tissue to tissue ratio at 24 h: 6.3
Uptake Kidney
  tissue uptake at 24 h: 10.5 %ID/g
Uptake Liver
  tissue uptake at 24 h: 9.6 %ID/g
Uptake Pancreas
  tissue uptake at 24 h: 2.65 %ID/g
Uptake Spleen
  tissue uptake at 24 h: 0.71 %ID/g
Uptake Stomach
  tissue uptake at 24 h: 4.1 %ID/g
Uptake Tumor
  tissue uptake at 24 h: 25.8 %ID/g

## C[C@@H](O)[C@H](NC(=O)[C@@H]1CSSC[C@H](NC(=O)[C@@H](Cc2ccccc2)NC(=O)CNC(=O)[C@H]2CCCN2C(=O)CNC(=O)[C@H]2CCCN2C(=O)CNC(=O)[C@H](CCCCNC(=O)c2cccc(NC(=O)N[C@@H]3CN(C4CCCCC4)c4ccccc4N(CC(=O)C(C)(C)C)C3=O)c2)NC(=O)CN2CCN(CC(=O)O)CCN(CC(=O)O)CCN(CC(=O)O)CC2)C(=O)N[C@@H](Cc2ccc(O)cc2)C(=O)N[C@H](Cc2c[nH]c3ccccc23)C(=O)N[C@@H](CCCCN)C(=O)N[C@@H]([C@@H](C)O)C(=O)N1)C(=O)O [Compound I-55, DOTA-K(Z360)-G-p-G-p-G-f[CYwKTC]T-OH] ({DOTA}-K([3Abz-CO-X1])G[dP]G[dP]G[dF]CY[dW]KTCT-OH; disulfide 8-13)
T/K Tumor/Kidney ratio
  tissue to tissue ratio at 24 h: 1.1
T/L Tumor/Liver ratio
  tissue to tissue ratio at 24 h: 2.5
T/P Tumor/Pancreas ratio
  tissue to tissue ratio at 24 h: 14
T/Sp Tumor/Spleen ratio
  tissue to tissue ratio at 24 h: 34
T/St Tumor/Stomach ratio
  tissue to tissue ratio at 24 h: 7.3
Uptake Kidney
  tissue uptake at 24 h: 20.8 %ID/g
Uptake Liver
  tissue uptake at 24 h: 9.21 %ID/g
Uptake Pancreas
  tissue uptake at 24 h: 1.66 %ID/g
Uptake Spleen
  tissue uptake at 24 h: 0.67 %ID/g
Uptake Stomach
  tissue uptake at 24 h: 3.13 %ID/g
Uptake Tumor
  tissue uptake at 24 h: 23 %ID/g

## C[C@@H](O)[C@H](NC(=O)[C@@H]1CSSC[C@H](NC(=O)[C@@H](Cc2ccccc2)NC(=O)CCCCCCCNC(=O)[C@H](CCCCNC(=O)c2cccc(NC(=O)N[C@@H]3CN(C4CCCCC4)c4ccccc4N(CC(=O)C(C)(C)C)C3=O)c2)NC(=O)CN2CCN(CC(=O)O)CCN(CC(=O)O)CCN(CC(=O)O)CC2)C(=O)N[C@@H](Cc2ccc(O)cc2)C(=O)N[C@H](Cc2c[nH]c3ccccc23)C(=O)N[C@@H](CCCCN)C(=O)N[C@@H]([C@@H](C)O)C(=O)N1)C(=O)O [Compound I-61, DOTA-K(Z360)-Aoc-f[CYwKTC]T-OH]
T/K Tumor/Kidney ratio
  tissue to tissue ratio at 24 h: 3.5
T/L Tumor/Liver ratio
  tissue to tissue ratio at 24 h: 0.1
T/P Tumor/Pancreas ratio
  tissue to tissue ratio at 24 h: 16
T/Sp Tumor/Spleen ratio
  tissue to tissue ratio at 24 h: 0.2
T/St Tumor/Stomach ratio
  tissue to tissue ratio at 24 h: 4.5
Uptake Kidney
  tissue uptake at 24 h: 1.53 %ID/g
Uptake Liver
  tissue uptake at 24 h: 53.3 %ID/g
Uptake Pancreas
  tissue uptake at 24 h: 0.34 %ID/g
Uptake Spleen
  tissue uptake at 24 h: 28.3 %ID/g
Uptake Stomach
  tissue uptake at 24 h: 1.21 %ID/g
Uptake Tumor
  tissue uptake at 24 h: 5.41 %ID/g
